Consider 91 sequences from the supplement of paper PMC9112550, “Optimization of the antimicrobial peptide Bac7 by deep mutational scanning” (BMC Biology, 2022).

The data set has as its system Escherichia coli TOP10. As to the kind of experiment: shrunken log2 fold change of peptide-encoding DNA abundance (4.5 h post-induction vs induction); higher = less antimicrobial activity (less host growth inhibition). Particulars: time post-induction: 4.5 h; library: site-saturation at positions 5, 18, 19, 20.
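Also: peptides expressed intracellularly from a pBAD plasmid library in pooled LB shake-flask culture, induced with 0.3% L-arabinose, DNA abundance read by NGS, three biological replicates, DESeq2 with apeglm shrinkage.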

As to RRIRIRPPRLPRPRPRPDCCPRP, the “shrunken log2 fold change” value came to 0.000204.
Consider RRIRERPPRLPRPRPRPANIPRP, for which the “shrunken log2 fold change” value is -0.465.
For the sequence RRIRRRPPRLPRPRPRPSACPRP, the “shrunken log2 fold change” value came out at 0.195.
As for RRIRPRPPRLPRPRPRPRFHPRP, the “shrunken log2 fold change” value is -0.108.
To RRIRIRPPRLPRPRPRPQSCPRP belongs -0.0388.
As to RRIRKRPPRLPRPRPRPKMSPRP, the “shrunken log2 fold change” value was -0.315.
With RRIRPRPPRLPRPRPRPAHAPRP, the “shrunken log2 fold change” value is 0.236.
Turning to RRIRGRPPRLPRPRPRPRNTPRP, the “shrunken log2 fold change” value was found to be 0.0904.
Consider RRIRIRPPRLPRPRPRPGPKPRP, for which the “shrunken log2 fold change” value was found to be 0.00436.
Consider RRIRERPPRLPRPRPRPNRAPRP, for which the “shrunken log2 fold change” value stood at 0.0169.
Turning to RRIRSRPPRLPRPRPRPRDWPRP, the “shrunken log2 fold change” value turned out to be 0.4.
For the sequence RRIRCRPPRLPRPRPRPYELPRP, the “shrunken log2 fold change” value was -0.18.
RRIRARPPRLPRPRPRPLVYPRP: the “shrunken log2 fold change” value was -0.372.
With RRIRWRPPRLPRPRPRPNWDPRP, the “shrunken log2 fold change” value is -0.0442.
For the sequence RRIRKRPPRLPRPRPRPQECPRP, the “shrunken log2 fold change” value was -0.00957.
Regarding RRIRARPPRLPRPRPRPFTHPRP, the “shrunken log2 fold change” value was -0.113.
Take RRIRTRPPRLPRPRPRPDTSPRP: the “shrunken log2 fold change” value was -0.324.
Take RRIRPRPPRLPRPRPRPALCPRP: the “shrunken log2 fold change” value was determined as 0.371.
With RRIRARPPRLPRPRPRPHVCPRP, the “shrunken log2 fold change” value is -0.297.
Consider RRIRVRPPRLPRPRPRPSVCPRP, for which the “shrunken log2 fold change” value turned out to be 0.0223.
For RRIRDRPPRLPRPRPRPQNDPRP, the “shrunken log2 fold change” value was -0.215.
For the sequence RRIRCRPPRLPRPRPRPHAFPRP, the “shrunken log2 fold change” value was -0.647.
For the sequence RRIRIRPPRLPRPRPRPSWRPRP, the “shrunken log2 fold change” value was found to be 0.144.
With RRIRCRPPRLPRPRPRPIIKPRP, the “shrunken log2 fold change” value is -1.01.
To RRIRNRPPRLPRPRPRPEYMPRP belongs -0.0146; to RRIRFRPPRLPRPRPRPTTGPRP, -0.0819; to RRIRCRPPRLPRPRPRPKLKPRP, -0.16.
Take RRIRLRPPRLPRPRPRPNEPPRP: the “shrunken log2 fold change” value was -0.213.
For the sequence RRIRCRPPRLPRPRPRPYPTPRP, the “shrunken log2 fold change” value was -0.517.
Take RRIRKRPPRLPRPRPRPVAKPRP: the “shrunken log2 fold change” value was found to be 3.34.
Take RRIRFRPPRLPRPRPRPINEPRP: the “shrunken log2 fold change” value is -0.11.
With RRIRHRPPRLPRPRPRPTRHPRP, the “shrunken log2 fold change” value worked out at 0.36.
Consider RRIRQRPPRLPRPRPRPKMLPRP, for which the “shrunken log2 fold change” value came to 0.0996.
RRIRGRPPRLPRPRPRPAKMPRP: the “shrunken log2 fold change” value worked out at 0.538.
To RRIRNRPPRLPRPRPRPGDGPRP belongs 0.292.
To RRIRDRPPRLPRPRPRPAMMPRP belongs -0.0512; to RRIRHRPPRLPRPRPRPCLKPRP, -0.16.
Take RRIRIRPPRLPRPRPRPELAPRP: the “shrunken log2 fold change” value came to 0.254.
With RRIRERPPRLPRPRPRPTMFPRP, the “shrunken log2 fold change” value was -0.724.
For RRIRHRPPRLPRPRPRPPPTPRP, the “shrunken log2 fold change” value was found to be 0.766.
Regarding RRIRMRPPRLPRPRPRPCAAPRP, the “shrunken log2 fold change” value was determined as 2.26.
On to RRIRYRPPRLPRPRPRPMKHPRP, for which the “shrunken log2 fold change” value is -0.495.
For the sequence RRIRGRPPRLPRPRPRPEHIPRP, the “shrunken log2 fold change” value came out at 0.19.
Take RRIRDRPPRLPRPRPRPSVEPRP: the “shrunken log2 fold change” value came out at 1.45.
To RRIRLRPPRLPRPRPRPGKMPRP belongs -0.0508.
For the sequence RRIRTRPPRLPRPRPRPNTRPRP, the “shrunken log2 fold change” value was -0.318.
Regarding RRIRHRPPRLPRPRPRPCYSPRP, the “shrunken log2 fold change” value was -0.0983.
Turning to RRIRWRPPRLPRPRPRPVEEPRP, the “shrunken log2 fold change” value was 0.0996.
As to RRIRKRPPRLPRPRPRPIPEPRP, the “shrunken log2 fold change” value was 0.163.
Turning to RRIRSRPPRLPRPRPRPRESPRP, the “shrunken log2 fold change” value came out at 0.092.
For the sequence RRIRFRPPRLPRPRPRPELLPRP, the “shrunken log2 fold change” value is 0.146.
Turning to RRIRFRPPRLPRPRPRPAGWPRP, the “shrunken log2 fold change” value stood at 0.674.
For RRIRSRPPRLPRPRPRPDDHPRP, the “shrunken log2 fold change” value was -0.0124.
Turning to RRIRSRPPRLPRPRPRPHDCPRP, the “shrunken log2 fold change” value is -0.0708.
Turning to RRIRFRPPRLPRPRPRPPGLPRP, the “shrunken log2 fold change” value is 0.573.
To RRIRYRPPRLPRPRPRPECPPRP belongs -0.00973.
Turning to RRIRGRPPRLPRPRPRPEFDPRP, the “shrunken log2 fold change” value was 1.8.
To RRIRCRPPRLPRPRPRPDREPRP belongs 0.0186.
With RRIRIRPPRLPRPRPRPREVPRP, the “shrunken log2 fold change” value is -0.118.
Turning to RRIRFRPPRLPRPRPRPNGLPRP, the “shrunken log2 fold change” value is -0.0551.
In the case of RRIRCRPPRLPRPRPRPSVHPRP, the “shrunken log2 fold change” value was -0.575.
RRIRYRPPRLPRPRPRPHEQPRP: the “shrunken log2 fold change” value is -0.0662.
To RRIRWRPPRLPRPRPRPVTNPRP belongs 0.266.
With RRIRWRPPRLPRPRPRPGTWPRP, the “shrunken log2 fold change” value is 0.0354.
Consider RRIRTRPPRLPRPRPRPEQAPRP, for which the “shrunken log2 fold change” value was found to be 0.173.
On to RRIRCRPPRLPRPRPRPCGSPRP, for which the “shrunken log2 fold change” value was -0.0815.
In the case of RRIRERPPRLPRPRPRPGFEPRP, the “shrunken log2 fold change” value is -0.1.
With RRIRARPPRLPRPRPRPLPQPRP, the “shrunken log2 fold change” value was determined as 0.64.
As for RRIRQRPPRLPRPRPRPCPQPRP, the “shrunken log2 fold change” value was -0.153.
Turning to RRIRGRPPRLPRPRPRPAWVPRP, the “shrunken log2 fold change” value is 0.456.
Consider RRIRARPPRLPRPRPRPRMDPRP, for which the “shrunken log2 fold change” value was determined as 0.356.
In the case of RRIRCRPPRLPRPRPRPCLKPRP, the “shrunken log2 fold change” value was -0.277.
Consider RRIRYRPPRLPRPRPRPRPQPRP, for which the “shrunken log2 fold change” value was determined as 0.438.
For the sequence RRIRDRPPRLPRPRPRPIFPPRP, the “shrunken log2 fold change” value was determined as 0.19.
Take RRIRTRPPRLPRPRPRPHHRPRP: the “shrunken log2 fold change” value was -0.655.
On to RRIRWRPPRLPRPRPRPSWTPRP, for which the “shrunken log2 fold change” value was -0.0457.
As to RRIRDRPPRLPRPRPRPVIVPRP, the “shrunken log2 fold change” value amounted to 0.0947.
As for RRIRRRPPRLPRPRPRPFACPRP, the “shrunken log2 fold change” value amounted to 0.152.
For RRIRPRPPRLPRPRPRPLGEPRP, the “shrunken log2 fold change” value is -0.155.
Turning to RRIRMRPPRLPRPRPRPNEDPRP, the “shrunken log2 fold change” value stood at 0.186.
In the case of RRIRSRPPRLPRPRPRPHWFPRP, the “shrunken log2 fold change” value was -0.0389.
Consider RRIRQRPPRLPRPRPRPPFRPRP, for which the “shrunken log2 fold change” value amounted to 0.14.
Turning to RRIRTRPPRLPRPRPRPYTLPRP, the “shrunken log2 fold change” value was -0.000759.
Regarding RRIRHRPPRLPRPRPRPQDVPRP, the “shrunken log2 fold change” value stood at 0.0527.
As for RRIRSRPPRLPRPRPRPHGCPRP, the “shrunken log2 fold change” value was -0.0029.
For RRIRERPPRLPRPRPRPTSSPRP, the “shrunken log2 fold change” value was -0.303.
Turning to RRIRQRPPRLPRPRPRPCLFPRP, the “shrunken log2 fold change” value was -0.268.
To RRIRHRPPRLPRPRPRPPHTPRP belongs 0.249; to RRIRLRPPRLPRPRPRPAINPRP, -0.157; to RRIRLRPPRLPRPRPRPTAYPRP, -0.047.
To RRIRTRPPRLPRPRPRPNECPRP belongs -0.0286.
